From patent EP0651783B1, “ALKALINE PHOSPHATASE ENZYME HAVING IMPROVED SPECIFIC ACTIVITY FOR USE IN INDICATOR REAGENTS” (ABBOTT LABORATORIES, priority 1992, dated 1994)

System: O=[N+]([O-])c1ccc(OP(=O)(O)O)cc1
Experiment: Alkaline phosphatase kinetic constants (substrate hydrolysis)
Type: biochemical, Escherichia coli
Details: other: Table 1; substrate not named, e.g. p-nitrophenyl phosphate
Experimental: The analyses for specific activity and temperature stability were performed on highly purified protein material. In brief, the purification process involved the release of the periplasmic protein by the formation of spheroplasts, ammonium sulphate precipitation and chromatofocusing chromatography. […] Temperature stability was measured by monitoring the decay of enzyme activity at different temperatures.

Substance: E. coli alkaline phosphatase variant pMA116, Lys^328 > Arg / Val^99 > Ala (Escherichia coli K-12; K350R/V121A)
- Km: 74 µM
